One molecule from PMC5477490 (Nature Communications, 2016) can be followed below.

Test in all cases: BLI; […] (AHC) biosensor, […]; Octet Red; 25 °C; kinetics buffer 1 × PBS, pH 7.4; association 900 s, dissociation 900 s; […]
Common to all, as to conditions: both partners purified

Assay [1] addresses HA of A/California/07/2009(H1N1) (Influenza A virus …, UniProt C3W5X2, strain).
The target of assay [2] is T1, HA of A/Brevig Mission/1/1918(H1N1) (Influenza A virus A/Brevig …, UniProt Q9WFX3, strain).
T1 construct: source: bought: Sino Biological Inc

The target of the next assay is HA of A/WSN/1933(H1N1) (Influenza A virus A/WSN/1933(H1N1), strain).
Assay [3] addresses HA of A/Brisbane/59/2007(H1N1) (Influenza A virus …, strain).
Assay [4] concerns the target HA of A/Canada/720/2005(H2N2) (Influenza A virus …, UniProt Q4ZH98, strain).
Assay [5] has as its target HA of A/Vietnam/1203/2004(H5N1) (Influenza A virus …, UniProt A8UDR6, strain).
Assay [6] has as its target HA of A/Anhui/1/2005(H5N1) (Influenza A virus A/Anhui/1/2005(H5N1), strain).
Assay [7] deals with HA of A/Hong Kong/483/1997(H5N1) (Influenza A virus A/Hong …, strain).

B1: human mAb 3E1 (antibody, V domains shown)
VH: QVQLQESGPGLVKPSETLSLTCSVSGASISSYYWIWIRQPAGKGLEWIGRFYTSGSPNYNPSLRSRVTMSVDTSKNQFSLKLTSVTAADTAVYYCAREEHITFGGVIVRYWGQGTLVTVSS
VL: DIQMTQSPATLSASVGDRVSITCRASQSISSWLAWYQQKPGKAPKLLIYKASSLESGVPSRFSGSGSGSEFTLTISSLQPDDFAIYYCQQYNSYPWTFGQGTKVEIK
notes: IgG1, kappa; also called 3E1 mAb
As for B1, the binding result is given as “binds” in assay [1]; “binds” in assay [2]; “binds” in the assay with HA of A/WSN/1933(H1N1); “binds” in assay [3]; “no binding” in assay [4]; “binds” in assay [5]. Also, the binding result in assay [6] and in assay [7] was “binds” each time.
